The values that follow come from patent publication US20260201030A1 (EVOPOINT BIOSCIENCES, published 2026).

Assay [1] addresses T1, human Claudin18.1 (human, UniProt P56856 1-261).
T1 construct: whole, on cells; also called CLDN18.1; HEK293T-Claudin18.1 (human)
Put plainly: FACS on HEK293T-Claudin18.1 (human) cells, antibody 50 µg/mL. On the procedure: The specificity of the anti-human Claudin18.2 murine monoclonal antibodies was evaluated by flow cytometry (FACS). The experimental procedures were as follows: The adherent cultured HEK293T-Claudin18.1 (human) cells were digested, collected by centrifugation, and washed three times with pre-cooled PBS. The cells were resuspended in 1% BSA (in PBS) and added to a 96-well pointed bottom plate at 3×10⁵ cells/well, with a volume of 50 μL per well. Each test antibody was diluted to 100 μg/mL with […] (in PBS) and added to the cells at 50 μL/well to achieve a final antibody concentration of 50 μg/mL. The mixture was well mixed and incubated at 4° C. for 1 h. The cells were collected by centrifugation, washed three times with pre-cooled PBS, and resuspended in 50 μL of 1% BSA (in PBS). 1 μL of a fluorescent secondary antibody (Biolegend, cat #405308) was added to each well, and the mixture was well mixed and incubated at 4° C. for 0.5 h. The cells were collected by centrifugation, washed three times with pre-cooled PBS, resuspended in 200 μL of PBS, and assayed on a machine (flow cytometer model: Sony-LE-SA3800GA). The APC fluorescence signal value was obtained, and the gate was set using an isotype control antibody as a negative control to obtain the percentage of positively stained cells (positive rate (0%)).

Assay [2] has as its target T1, human Claudin18.1. Put plainly: FACS on HEK293T-Claudin18.1 (human) cells.
For a further assay, the target named is T2, human Claudin18.2 (human, UniProt P56856-2 1-261).
T2 construct: whole, on cells; also called CLDN18.2; HEK293T-Claudin18.2 (human)
Put plainly: cell-based ELISA on fixed HEK293T-Claudin18.2 (human) cells. On the procedure:
The affinity of the anti-human Claudin18.2 murine monoclonal antibodies was evaluated by cell-based ELISA. The experimental procedures were as follows: The day before the experiment, HEK293T-Claudin18.2 (human) cells were plated in a 96-well plate at 5×10⁴ cells/well. On the day of the experiment, the supernatant was removed, the cells in each well were washed once with 300 μL of PBS, and 100 μL of 4% paraformaldehyde was added to each well for fixation at room temperature for 20 min. Paraformaldehyde was then removed, and the cells in each well were washed twice with 300 μL of PBS. 100 μL of 2% BSA (in PBS) was added to each well, and the mixture was blocked at 37° C. for 2 h. After removing the blocking solution, each antibody subjected to gradient dilution (diluted with 2% BSA (in PBS), starting at […], in a 3-fold gradient, for a total of 11 concentration points) was added to the plate at 100 μL/well, and the mixture was incubated at 37° C. for 2 h. The supernatant was removed, and the cells in each well were washed three times with 300 μL of PBST. 100 μL of an anti-mouse IgG HRP secondary antibody (Jackson, cat #115-035-003) in 2% BSA was added to each well, and the mixture was incubated at 37° C. for 1 h. The secondary antibody was then removed, and the cells in each well were washed five times with 300 μL of PBST, followed by the addition of 100 μL of a TMB substrate (Huzhou InnoReagents Co., Ltd.) per well for color development for 5-20 min. The reaction was stopped by adding 50 μL of 2 N HCl to each well, and OD_{450 nm} values were read on a microplate reader (manufacturer: MD, model: SpectraMax). The values obtained were plotted by GraphPad Prism to calculate the EC₅₀ value.

B1: 25C7A5 (antibody, V domains shown)
VH: EVQLQQPGAELVKPGTSVKLSCKASGYTFTNYWLHWVRQRPGQGLEWIGMMHPISGSSNNNERFKSKATLTVDKSSTTAYMQLSRMTSEDSAVYYCARGLLSAMDYWGQGTSVTVSS
VL: CIVLTQSPKSMSMSVGERVTLSCKASENVKTYVSWYQQRPEQSPKLLIYEASNRYTGVPDRFTGSGSATVFTLTISSVQTEDLANYFCGQTYSFPPTFGSGTKLEIK
notes: Murine monoclonal antibody purified from hybridoma supernatant
As a reminder, the EC50 is the concentration needed to bring the measured effect to its halfway point. The low end stands for an effect from little substance, the high end for a need for much substance. As for B1, in the assay with human Claudin18.1 [1], the “Mean APC fluorescence signal value” was 123 and the “Positive rate (%)” value stood at 0.87%. The binding result in the assay with human Claudin18.1 [2] was “no binding (tested: 50 µg/mL)”. The molecule further displayed an EC50 with human Claudin18.2 of 10.5 ng/mL.

B2: 8H11A10 (antibody, V domains shown)
VH: QVQLKESGPVLVAPSQSLSITCTVSGFSLTNYGVHWVRQPPGKGLEWLGVIWSGGRTNYNSALMSRLSISKDNSKSQVFLKMNSLQTDDTAMYYCAKRDGIYGDYWGQGTSVTVSS
VL: DIVETQSPSSLTVTAGEKVTMSCKSSQSLLNSGNQKNYLTWYQQKPGQSPKLLIYWASTRESGVPDRFTGSGFGTDFTLTISSVQAEDLAVYYCQNDYIYPLTFGAGTKLELK
notes: Murine monoclonal antibody
As to B2, in the assay with human Claudin18.1 [1], the “Mean APC fluorescence signal value” turned out to be 175 and the “Positive rate (%)” value is 1.21%. Besides, the binding result in the assay with human Claudin18.1 [2] is given as “no binding (tested: 50 µg/mL)”. Besides, the response with human Claudin18.2 was half-maximal at 12.3 ng/mL (EC50).

B3: 23F2F2 (antibody, V domains shown)
VH: QVQLKESGGGLVQPGGSMKLSCAASGFTFSDAWMNWVRQSPEKGLEWVAEIRNKADYHATHYVESVTGRFTISRDDSKSSVYLQMNRLRAEDTGIYYCTRNYGSRFDYWGQGTTLTVSS
VL: DIVETQSPSSLTVTAGEKVTMSCKSSQSLLNSGNQRNYLTWYQQKPGHPPKLLIYWASTRESGVPDRFTGSGSGTDFTLTVTSVQAEDLAVYYCQNDYFYPLAFGTGTKLELK
notes: as for B1
On to B3, for which, in the assay with human Claudin18.1 [1], the “Mean APC fluorescence signal value” is 222 and the “Positive rate (%)” value was determined as 2.16%. The binding result in the assay with human Claudin18.1 [2] is listed as “no binding (tested: 50 µg/mL)”. In the assay with human Claudin18.2, this molecule showed an EC50 of 6.02 ng/mL.

B4: 1A6G10 (antibody, V domains shown)
VH: QVQLKESGGGLVKPGGSLKLSCAASGFTFSSYAMSWVRQTPEKRLEWVAAIHSNGGSTYNSDTMRDRFTISRDHAKNTLYLQMSSLRSEDTALYYCGRQSFGNALDYWGQGTSVTVSS
VL: DIQMTQSPSSLTVTAGEKVTLTCKSSQSLLNSGNQKNYLTWYQQKPGQPPKLLIYWASTRESGVPDRFTGSGSGTFFTLTISSVQAEDLAVYFCQNDYVYPFTFGAGTQLELK
notes: Murine monoclonal antibody purified from hybridoma supernatant; also called 1A6G11
As to B4, in the assay with human Claudin18.1 [1], the “Mean APC fluorescence signal value” came to 111 and the “Positive rate (%)” value was 0.16%. Further, in the assay with human Claudin18.1 [2], the binding result is on record as “no binding (tested: 50 µg/mL)”. This molecule returned an EC50 in the assay with human Claudin18.2 of 5.02 ng/mL.

B5: 32F7A6 (antibody, V domains shown)
VH: QIQLVQSGPELRKPGETVKISCKASGYTFTAYTMGWVKQAPGKGLEWMAWINTYSGVPTYAADFKGRFAFSLETSASTAYLLINNLKNEDTATYFCARGVRGNSMDYWGQGTSVTVSS
VL: DIVETQSPSSLTVTVGERVTLSCKSSQSLLNSGNQRNYLTWSQQKPGQPPKLLIYWASTRESGVPNRFTGGGSGTYFTLTISSVQVEDLAVYYCQNTYSFPFTFGTGTKLEIK
notes: as for B1
In the case of B5, in the assay with human Claudin18.1 [1], the “Mean APC fluorescence signal value” amounted to 411 and the “Positive rate (%)” value was found to be 0%. Also, the EC50 with human Claudin18.2 was determined as 2.4 ng/mL.

B6: 2D3A11 (antibody, V domains shown)
VH: EVQLQQSGPELVKPGASVRMSCKASGYTFTSYVVHWVKQKPGQGLEWIGYINPYNADSKYNERFKGKATLTSDKSSNSAYMELSSLTSEDSAVYYCSRSYYGNSFDVWGAGTTVTVSS
VL: DIVMTQSPSSLTVTTGEKVTMSCKSSQSLLNSGNQKNYLTWYQQKPGQSPKLLFFWASTRQSGVPDRFTGSGSGTYFTLTISSVQAEDLAVYYCQNDYYFPFTFGTGTKLEIK
notes: as for B1
With B6, in the assay with human Claudin18.1 [1], the “Mean APC fluorescence signal value” stood at 134 and the “Positive rate (%)” value was determined as 0.25%. Moreover, in the assay with human Claudin18.1 [2], the binding result is “no binding (tested: 50 µg/mL)”. Besides, it took 8.14 ng/mL to reach a half-maximal effect with human Claudin18.2 (EC50).

B7: 40G11H2 (antibody, V domains shown)
VH: EVQLQQSGAELARPGASVKLSCKASGYTFTSYGIRWVKQRTGQGLEWIGEIYPRGGNTYYDEKFKGKATLTADKSSSTAYMGLRSLTSEDSAVYFCARADYGNSFAYWGQGTLVTVSA
VL: DIVMTQSPSSLTVTAREKVTMSCKSSQSLLNSGNQKNYLTWYHQKPGQPPKLLIYWASTRESGVPDRFTGSGSGTDFTLTISSVQAEDLAVYFCQNAYFYPFTFGTGTKLEIK
notes: Murine monoclonal antibody
On to B7, for which, in the assay with human Claudin18.1 [1], the “Mean APC fluorescence signal value” is 160 and the “Positive rate (%)” value is 0.98%. Also, in the assay with human Claudin18.1 [2], the binding result is on record as “no binding (tested: 50 µg/mL)”. The same molecule yielded an EC50 with human Claudin18.2 of 7.38 ng/mL.
